# Measured values taken from US20110039779A1 (published 2011).
# Values joined by “and” are separate entries in the source; they are usually repeats but may differ in a detail not shown here. Equal values may be shown once. Where no end group is shown, it is not given here. [ ]: non-standard residue; d: D form. The star is where a group is joined. Biotin = O=C1N[C@H]2[C@H](CS[C@H]2CCCCC(=O)*)N1; AEEA = NCCOCCOCC(=O)O
# B1: F191 (peptide)
# peptide: EEGVDEVRAWLWCQISGLGCESEEX
# modifications: C-terminal Lig (lysine with a 2-aminohydroxyacetyl group on the epsilon amino group)
# B2: F119 (peptide)
# peptide: XGSLDESFYDWFERQLGKK
# modifications: N-terminal Lig (lysine with a 2-aminohydroxyacetyl group on the epsilon amino group)
# B3: F254 (peptide)
# peptide: ESFYSCLESLVAGPAEKSRGQWEGCR[AEEA][AEEA]GYSWLRDVLMEKQAQLKREGSVGRQE
# modifications: cysteine pairing not given here
# notes: 111 conjugated by POX
# B4: F194 (peptide)
# peptide: XEESFYSCLESLVNGGAERSDGQWEGCREE
# modifications: N-terminal Lig (lysine with a 2-aminohydroxyacetyl group on the epsilon amino group)
# Target: T1, IGF-1R on SW480 cells (UniProt P08069 31-1367, limits assumed)
# Assay: cell-based or functional assay
# T1 sequence (P08069 31-1367 limits assumed): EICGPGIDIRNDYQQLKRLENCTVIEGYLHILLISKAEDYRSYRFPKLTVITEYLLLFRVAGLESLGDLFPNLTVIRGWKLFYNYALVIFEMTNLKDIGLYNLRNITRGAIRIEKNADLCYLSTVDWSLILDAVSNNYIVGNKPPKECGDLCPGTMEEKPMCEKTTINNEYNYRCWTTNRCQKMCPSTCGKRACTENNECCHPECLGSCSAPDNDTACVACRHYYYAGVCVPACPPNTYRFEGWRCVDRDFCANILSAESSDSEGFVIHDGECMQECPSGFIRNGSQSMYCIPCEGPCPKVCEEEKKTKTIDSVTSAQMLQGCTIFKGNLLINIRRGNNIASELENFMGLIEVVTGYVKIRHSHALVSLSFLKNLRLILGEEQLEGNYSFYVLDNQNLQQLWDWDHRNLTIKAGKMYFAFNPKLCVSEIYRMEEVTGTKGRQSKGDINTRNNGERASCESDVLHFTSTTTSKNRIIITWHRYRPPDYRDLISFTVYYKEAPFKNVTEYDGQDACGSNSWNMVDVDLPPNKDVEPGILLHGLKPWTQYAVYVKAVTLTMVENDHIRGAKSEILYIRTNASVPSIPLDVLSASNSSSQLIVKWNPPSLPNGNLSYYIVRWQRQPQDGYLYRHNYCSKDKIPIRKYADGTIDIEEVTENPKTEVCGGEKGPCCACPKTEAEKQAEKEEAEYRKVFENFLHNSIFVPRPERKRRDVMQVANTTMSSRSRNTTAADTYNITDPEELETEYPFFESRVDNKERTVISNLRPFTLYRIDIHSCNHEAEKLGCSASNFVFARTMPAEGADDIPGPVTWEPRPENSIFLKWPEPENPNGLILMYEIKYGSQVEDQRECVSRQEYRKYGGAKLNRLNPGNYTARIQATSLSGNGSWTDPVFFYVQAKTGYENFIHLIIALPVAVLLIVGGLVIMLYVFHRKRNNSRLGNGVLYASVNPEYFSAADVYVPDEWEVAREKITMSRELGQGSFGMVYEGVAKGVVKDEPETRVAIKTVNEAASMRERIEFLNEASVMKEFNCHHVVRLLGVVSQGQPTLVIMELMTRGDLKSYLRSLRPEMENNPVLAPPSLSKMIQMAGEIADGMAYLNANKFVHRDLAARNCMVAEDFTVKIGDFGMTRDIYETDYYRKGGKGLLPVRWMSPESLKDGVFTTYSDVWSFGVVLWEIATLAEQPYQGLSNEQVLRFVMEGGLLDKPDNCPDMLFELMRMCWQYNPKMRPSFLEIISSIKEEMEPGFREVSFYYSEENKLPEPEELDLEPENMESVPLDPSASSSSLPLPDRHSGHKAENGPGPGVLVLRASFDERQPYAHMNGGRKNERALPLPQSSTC
Binder,IC50 in SW480 (M) in presence of IGF-1 [M],"IC50 in SW480 (M), peptide alone [M]"
ELQGFCELLATVTGVTGLGCLDYQPIE [F202],> 1e-05,
"VQDDCRGRPCGDADSFYEWFDQQAS [F263, listing 1 of 2 here]",> 1e-06,> 1e-06
RQWDCRGRPCGDAESFYEWFDQQRS [F264],> 1e-05,> 1e-05
SFYSCLESLVNGPAEKSRGQWDGCR [F249],> 1e-05,> 1e-05

# Target: T1, IGF-1R on SW480 cells
# Assay: cell-based or functional assay
# Remark: another data set of the same source
Binder,"IC50, IGF-1 (10 nM)-induced proliferation of SW480 cells, exp. 13262-015 [µM]","IC50, IGF-1 (10 nM)-induced proliferation of SW480 cells, exp. 13262-014 [µM]","IC50, IGF-1 (10 nM)-induced proliferation of SW480 cells, exp. 13262-025 [µM]","IC50, IGF-1 (10 nM)-induced proliferation of SW480 cells, exp. 13262-027 [µM]","IC50, IGF-1 (10 nM)-induced proliferation of SW480 cells, exp. 13717-019 [µM]","IC50, IGF-1 (10 nM)-induced proliferation of SW480 cells, exp. 13717-027 [µM]"
IFYSCLASLLHGGPQRNTGPWERCRR [F141],> 10,,,,,
SFYSCLESLVKRPTERSRGQWVGCR [F320],,> 10,,,,
ESFYSCLASLVTGIPRSNSGTQVFCREE [F227],> 10,,,,,
QFYGCLLDLSLGVPSFGWKKKCITA [F392],,,> 10,1,,
DFYGCLLDLSLGVPSLGWRRRCIT [F428],,,,,1,1
SFYSCLESLVSGPAEKSHRRWEACR [F321],,> 10,,,,
VQDDCRGRPCGDADSFYEWFDQQAGYGSSSRRAPQT [F364],> 10,,,,,

# Target: IGF-1R on L6 cells
# Assay: cell-based or functional assay
Binder,"IC50, down regulation of 3 nM IGF-1 stimulation to basal level, IGF-IR, L6 cells","IC50, down regulation of 3 nM IGF-1 stimulation to basal level, IRS-1, L6 cells [µM]","IC50, down regulation of 3 nM IGF-1 stimulation to basal level, MAPK42, L6 cells [µM]","IC50, down regulation of 3 nM IGF-1 stimulation to basal level, MAPK44, L6 cells [µM]"
SFYSCLESLVKRPTERSRGQWVGCR [F320],2 µM and > 1 µM,> 2,1,1

# Target: T2, human insulin-like growth factor-1 receptor (HIGF-1R) (human, UniProt P08069 31-1367)
# T2 construct: Detergent-solubilised receptor purified on WGA-agarose; also called HIGFIR
# Assay: 125I-IGF-1 displacement, PEG-assay
# Procedure: IGF-1R affinity studies were generally performed as follows. […] The day before harvest cells were moved to serum free conditions and before harvest the cells were rinsed with and ice cold PBS solution. The cells were solubilized in cold lysis buffer (4 ml lysis buffer/1×10⁸ cells); vortexed vigorously to lysis in lysis buffer (50 mM Hepes (pH 8.0); 150 mM NaCl; 1% Triton X-100; 2 mM EDTA; 10 μg/mlaprotinin; 0.5 mM PEFABLOC (Roche)); and the lysate centrifuged at 4° C., 20000 rpm, for 15 minutes. […] In some cases, human insulin receptor (HIR) affinity for select test peptides was similarly measured.
# T2 sequence (P08069 31-1367 limits assumed): as the sequence (P08069 31-1367 limits assumed) above
row,Binder,Kd [µM]
1,FFYRCLSRLLGGQLGSRLGLSCIGD [F139],8
2,SFYSCLESLVNGPAEKSRGQWDGCRK [F250],42
3,EWLEQERAWIWCEIQGSGCRAE [F216],10
4,EDHRLCGTDEYLMQDLFVRGLCRLIWE [F164],4
5,B1,54
6,EGRVDDAFYEWFERQLGE [F213],0.8
7,DDDKGSLDESFYDWFERQLGTFYSCLASLLTGTPQPNRGPWERCR [F110],1
8,GVRAMSFYDALVSVLGLGPSG [F157],2
9,ESFYSCLESLVNGPAEKSRGQWDGCRE [F215],82
10,B2,1
11,ELSFACLLSQLSGVVLPDCLLGEDE [F201],43
12,TFYSCLASLLTGPREQNRGAWERCRR [F142],0.04
13,ETFYKCLASVLTGSTQTKRRPWEGCREE [F229],37
14,ESFYSCLASLVAGTPWPKGGSWERCREE [F230],20
15,VEGRGLFYDLLRQLLARRQNG [F158],0.9
16,KLHNLMFYYGLQRLVWGAGLG [F159],5

# Target: T2, human insulin-like growth factor-1 …
# Assay: 125I-IGF-1 displacement, SPA-assay
# From the text: In certain cases, a scintillation proximity assay (SPA assay) was used to determine IGF-1R affinity.
row,Binder,Kd [µM]
1,"QFYGCLLDLSLGVPSFGWRRRCITA (N-terminal Pox (8-amino-3,6-dioxaoctanoic acid)) [F406]",14
2,SQDQVGASLGSAISGRGGLSNFYSCLTSLATDTTRPSRRPWERCR [F397],28
3,ESYGDCRDRPCGDAPNFYDWFVQQASE [F270],7
4,GVGGWRYGSFPSFSSQTRS [F431],0.0017
5,EGRVDDAFYEWFERQLGEELCQSWGVRIGWLAGLCPE [F410],37
6,B3,82
7,RQFYGCLLDLSLGVPSFGWRRRCITAR [F407],69
8,SFYSCLESLVNGPAEKFRGRRDGCR [F380],46
9,{Biotin-AEEA}-SFYSCLESLVQGPAEKSRGQWEGCRK (cysteine pairing not given here) [F414],65
10,VQDDCRGRPCGDADSFYEWFDQGYGSSSRRAPQT [F404],62
11,"VQDDCRGRPCGDADSFYEWFDQQAS [F263, listing 2 of 2 here]",2.5
12,"Ac-SFYSCLESLVQGPAEKSRGQWEGCRK (cysteine pairing not given here, Second row labelled F365) [F365 (row r332, SEQ ID NO 200)]",0.26
13,B4,55
14,Ac-SFYSCLESLVTGPKERSRGQWEGCRR (cysteine pairing not given here) [F306],0.1
